Test results taken from patent US20250154268A1 (NONA BIOSCIENCES SUZHOU, published 2025).
Substitutions are numbered along the chain they refer to. Numbers in names are those of the source. Read-outs that look alike come from different tables or passages of the source. One block for each binder: values may come before it.

How the values were obtained:
[1] = molecular target: T1, human CD25 (human, UniProt P01589 22-272); experiment: flow cytometry, Karpas299 cells
T1 construct: whole, on cells; Always presented on cells; also called huCD25; IL2Rα
T1 sequence (looked up): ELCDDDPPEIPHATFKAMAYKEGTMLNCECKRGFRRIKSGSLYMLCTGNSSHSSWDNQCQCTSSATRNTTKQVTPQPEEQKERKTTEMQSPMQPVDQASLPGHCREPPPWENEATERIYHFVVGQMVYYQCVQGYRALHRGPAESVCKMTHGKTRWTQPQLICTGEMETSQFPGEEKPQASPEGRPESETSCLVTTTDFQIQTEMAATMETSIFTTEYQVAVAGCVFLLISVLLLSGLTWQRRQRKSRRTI

[2] = molecular target: T1, human CD25; experiment: flow cytometry, SU-DHL-1 cells
Method: (§1) Briefly, the CHOK1-huCD25 cells and HEK293-cynoCD25 cells were digested, the SU-DHL-1 cells, Karpas299 cells, Treg cells and Teff cells were collected, and the cells were resuspended in PBS containing 2% BSA. The cells were adjusted to a cell density of 1×10⁶ cells/mL, respectively. […] The cells were incubated at 4° C. for 1 hour in the dark. After the incubation, the cells were rinsed twice by adding pre-chilled PBS containing 2% BSA at 100 μL/well, and centrifuged at 500 g at 4° C. for 5 minutes, and the supernatant was discarded. […] The cells were washed twice by adding pre-chilled PBS containing 2% BSA at 100 μL/well, and centrifuged at 500 g at 4° C. for 5 minutes, and the supernatant was discarded. Finally, the cells were resuspended in pre-chilled PBS containing 2% BSA at 200 μL/well, and the fluorescence signal values were read using a BD CantoII flow cytometer.

[3] = molecular target: T2, cynomolgus monkey CD25 (cynomolgus monkey, UniProt H6WS54 22-272); experiment: flow cytometry, HEK293-cynoCD25 cells
T2 construct: whole, on cells; also called cynoCD25
T2 sequence: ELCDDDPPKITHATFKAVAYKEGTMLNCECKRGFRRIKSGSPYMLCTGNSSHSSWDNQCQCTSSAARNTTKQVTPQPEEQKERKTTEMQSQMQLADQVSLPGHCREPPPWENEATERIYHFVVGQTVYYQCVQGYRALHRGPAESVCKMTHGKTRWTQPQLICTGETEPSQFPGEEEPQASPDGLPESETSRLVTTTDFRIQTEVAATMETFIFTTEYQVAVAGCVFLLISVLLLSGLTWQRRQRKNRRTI
Method: as §1

[4] = molecular target: T1, human CD25; experiment: flow cytometry, SU-DHL-1 cells; remark: listed apart in the source
Method: as §1

[5] = molecular target: T1, human CD25; experiment: flow cytometry, Karpas299 cells; remark: listed apart in the source
[6] = molecular target: T2, cynomolgus monkey CD25; experiment: flow cytometry, HEK293-cynoCD25 cells; remark: listed apart in the source
Method: as §1

[7] = molecular target: T1, human CD25; experiment: flow cytometry, SU-DHL-1 cells; remark: listed apart in the source
Method: as §1

[8] = molecular target: T1, human CD25; experiment: flow cytometry, Karpas299 cells; remark: listed apart in the source
[9] = molecular target: T1, human CD25; experiment: flow cytometry, Karpas299 cells; remark: listed apart in the source
Method: (§2) This example was intended to study the in-vitro binding activity of H2L2 monoclonal antibodies against human CD25 to human/cynomolgus monkey CD25. […] Briefly, the CHOK1-huCD25 cells and HEK293-cynoCD25 cells were digested, the SU-DHL-1 cells, Karpas299 cells, Treg cells and Teff cells were collected, and the cells were resuspended in PBS containing 2% BSA. The cells were adjusted to a cell density of 1×10⁶ cells/mL, respectively. […] The cells were incubated at 4° C. for 1 hour in the dark. After the incubation, the cells were rinsed twice by adding pre-chilled PBS containing 2% BSA at 100 μL/well, and centrifuged at 500 g at 4° C. for 5 minutes, and the supernatant was discarded. […] The cells were washed twice by adding pre-chilled PBS containing 2% BSA at 100 μL/well, and centrifuged at 500 g at 4° C. for 5 minutes, and the supernatant was discarded. Finally, the cells were resuspended in pre-chilled PBS containing 2% BSA at 200 μL/well, and the fluorescence signal values were read using a BD CantoII flow cytometer.

[10] = molecular target: T1, human CD25; experiment: flow cytometry, SU-DHL-1 cells; remark: listed apart in the source
Method: as §1

[11] = molecular target: T2, cynomolgus monkey CD25; experiment: flow cytometry, HEK293-cynoCD25 cells; remark: listed apart in the source
Method: as §2

EC50 [1]: 40 nM
Maximum MFI [1]: 8600 MFI
EC50 [2]: 4.02 nM
Maximum MFI [2]: 34500 MFI
EC50 [3]: 2.25 nM
Maximum MFI [3]: 27900 MFI
B3: PR008016 (antibody, human IgG1, kappa, V domains shown)
VH: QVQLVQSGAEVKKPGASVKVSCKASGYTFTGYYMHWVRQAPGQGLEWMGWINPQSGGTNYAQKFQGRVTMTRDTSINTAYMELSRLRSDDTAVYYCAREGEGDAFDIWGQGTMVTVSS
VL: DFQMTQSPSTLSASVGDRVTITCRASQSISSWLAWYQQKPGKAPKLLIYEASSLKSGVPSRFSGSESGTEFTLTISSLQPDDFATYYCHQYMSYSTFGQGTKVEIKR
notes: PTM variant of PR006931 (VH:N54Q, S60Y); human IgG1

EC50 [4]: 1.85 nM
Maximum MFI [4]: 34700 MFI
EC50 [5]: 20 nM
Maximum MFI [5]: 10600 MFI
B4: PR006928 (antibody, human IgG1, kappa, V domains shown)
VH: QVQLVQSGGGVVQPGRSLRLSCAASGFTFSNYDMHWVRQAPGKGLEWVAVIWYDGINKHYTDSVKGRFTMSRDNFKNTLHLQMNSLRAEDTAIYYCAREGAGDAFDIWGQGTMVTVSS
VL: DIQMTQSPSTLSASVGDRVTITCRASQSFDNWLAWYQQKPGKAPKLLIYKASSLESGVPSRFSGSGSGTEFTLTISSLQPDDFATYYCQQYNSYSTFGQGTRLEIKR
notes: Fully human recombinant IgG1, kappa; also called 150G7E2

EC50 [9]: 8 nM
EC50 [10]: 1.55 nM
EC50 [11]: 2.25 nM
B7: PR008197 (antibody, human IgG1, kappa, V domains shown)
VH: QVQLQGSGPGLVKPSGTLSLTCAVSPGSISSSNWWNWVRQPPGKGLEWIGEIYHRGSTNYNPSLKSRVTISVDKSKNQFSLKLSSVTAADTAVYYCTHYYYDSSGYYYGYWGQGTLVTVSS
VL: DIVMTQSPLSLPVTPGEPASISCRSSQSLLHRDVYNYVDWYLQKPGQSPQLLIYLGSNRASGVPDRFSGSGSGTDFTLKISRVEAEDVGVYYCLQALQTPLTFGGGTKVEIKR
notes: PTM variant of PR005436 (VH:D26P); human IgG1

The remaining lines, values behind:

B1: PR008014 (antibody, human IgG1, kappa, V domains shown)
VH: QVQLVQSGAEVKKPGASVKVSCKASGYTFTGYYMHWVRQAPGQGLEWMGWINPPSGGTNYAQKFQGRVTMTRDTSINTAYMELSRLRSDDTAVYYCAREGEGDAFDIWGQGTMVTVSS
VL: B3 VL with M92L
notes: PTM variant of PR006931 (VH: N54P, S60Y); human IgG1
EC50 [1]: 30 nM
Maximum MFI [1]: 9510 MFI
EC50 [2]: 1.36 nM
Maximum MFI [2]: 32800 MFI
EC50 [3]: 1.63 nM
Maximum MFI [3]: 31500 MFI

B2: PR006984 (antibody, human IgG1, kappa, V domains shown)
VH: QVHLVESGGGVVQPGRSLRLSCAASGFTFSKYDMHWVRQAPGKGLEWVAVVWFDGINKSYIDSVRGRFTISRDNSKSTLYLQMNSLRDDDTAVYYCAREGVGDAFDIWGQGAMVTVSS
VL: B4 VL with F29I, D30S, N31S, G66E, S76T, D81N
notes: Fully human recombinant IgG1, kappa; also called 180F6E8
EC50 [4]: 6 nM
Maximum MFI [4]: 35300 MFI
EC50 [5]: 55 nM
Maximum MFI [5]: 8720 MFI

B5: PR006769 (antibody, human IgG1, kappa, V domains shown)
VH: B7 VH
VL: B7 VL with L94M
notes: as for B7
EC50 [6]: 3.53 nM
Maximum MFI [6]: 132000 MFI
EC50 [7]: 2.94 nM
Maximum MFI [7]: 32200 MFI
EC50 [8]: 39.3 nM
Maximum MFI [8]: 16800 MFI

B6: PR006771 (antibody, human IgG1, kappa, V domains shown)
VH: B7 VH
VL: B7 VL with D33R, V34G, L94M
notes: as for B7
EC50 [6]: 5.35 nM
Maximum MFI [6]: 136000 MFI
EC50 [7]: 4.56 nM
Maximum MFI [7]: 29800 MFI
EC50 [8]: 40 nM
Maximum MFI [8]: 8970 MFI

B8: PR007181 (antibody, human IgG1, kappa, V domains shown)
VH: QVQLQESGPGLVKPSGTLSLTCAVSGGSISSSNWWSWVRQSPGKGLEWIGEIYHSGSTNYNPSLKSRVTISVDKSKNQFSLKLSSVTAADTAVYYCARDRLVAVAGIFDYWGQGTLVTVSS
VL: EIVMTQSPATLSVSPGERATFSCRASQTVSSDLAWYQQKPGQAPRLLIYGASTRATGIPARFSGSGSGTEFTLTISSLQSEDFAFYYCQQSNDWPYTFGQGTKLEIKR
notes: Fully human recombinant IgG1, kappa; also called 111C1D7
EC50 [4]: 1.68 nM
Maximum MFI [4]: 32500 MFI
EC50 [5]: 5.81 nM
Maximum MFI [5]: 10200 MFI
